We go through five molecules from patent US20170313750A1 (Novo Nordisk, published 2017).

Numbered stars: 1 amine (or outer) side, 2 acyl side, 3 side chain; on linkers, the order of the positions; unused ones are H or OH. Side chains are listed from the residue outwards. * marks the point of attachment. C18 diacid = O=C(O)CCCCCCCCCCCCCCCCC(=O)*; γGlu = O=C(O)[C@H](CCC(=O)[*:2])N[*:1]; Isovaleryl = CC(C)CC(=O)*; AEEA = NCCOCCOCC(=O)O

In test [1] the target is human Y4 receptor (P50391, NPY4R_HUMAN, Uniprot) (human) (UniProt P50391). Put plainly: ratio of SPA values, Y2 as reference.
Test [2] concerns the target T1, human Y1 receptor (P25929, NPY1R_HUMAN, Uniprot) (human, UniProt P25929 1-384).
T1 construct: whole, on cells; Assayed as membrane preparations of the expressing cells; also called NPY-Y1 receptor
T1 sequence (looked up): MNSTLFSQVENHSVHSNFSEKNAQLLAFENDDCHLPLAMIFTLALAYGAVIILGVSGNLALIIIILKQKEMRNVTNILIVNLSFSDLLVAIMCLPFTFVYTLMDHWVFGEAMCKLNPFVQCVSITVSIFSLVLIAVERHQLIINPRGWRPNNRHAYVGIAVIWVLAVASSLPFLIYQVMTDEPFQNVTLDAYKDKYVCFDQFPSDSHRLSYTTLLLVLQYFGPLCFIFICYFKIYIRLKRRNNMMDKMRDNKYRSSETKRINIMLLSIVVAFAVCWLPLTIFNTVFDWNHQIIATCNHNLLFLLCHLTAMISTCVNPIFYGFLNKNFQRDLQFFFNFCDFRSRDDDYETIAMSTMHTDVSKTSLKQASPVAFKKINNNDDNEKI
Description: SPA vs [125I]-PYY(1-36).
Description: (§1) Human Y receptor SPA binding assay were performed in white 96-well plates in a total volume of 200 μl per well.
(§2) Plates were sealed and incubated at +25° C. for 2 hours in a plate shaker set at 400 rpm and thereafter centrifuged at 1500 rpm for 10 minutes prior to reading of luminescence on a microplate scintillation and luminescence counter.

In test [3] the target is T2, human Y4 receptor (P50391, NPY4R_HUMAN, Uniprot) (human, UniProt P50391 1-375).
T2 construct: whole, on cells; Assayed as membrane preparations of the expressing cells
Put plainly: SPA vs [125I]-PP.
Description: as §1, §2

Test [4] has as its target T3, human Y2 receptor (P49146, NPY2R_HUMAN, Uniprot) (human, UniProt P49146 1-381).
T3 sequence (looked up): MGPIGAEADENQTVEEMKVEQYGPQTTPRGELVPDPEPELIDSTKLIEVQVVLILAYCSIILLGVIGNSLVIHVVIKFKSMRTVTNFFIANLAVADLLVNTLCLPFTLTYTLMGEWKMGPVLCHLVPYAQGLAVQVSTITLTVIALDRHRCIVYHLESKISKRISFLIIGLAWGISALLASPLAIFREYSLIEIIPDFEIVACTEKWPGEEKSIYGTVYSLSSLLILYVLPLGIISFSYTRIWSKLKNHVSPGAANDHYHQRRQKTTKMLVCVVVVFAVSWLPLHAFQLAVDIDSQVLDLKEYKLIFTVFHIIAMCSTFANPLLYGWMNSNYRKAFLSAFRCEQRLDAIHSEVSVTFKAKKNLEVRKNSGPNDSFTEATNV
Put plainly: cell-based or functional assay.

The target in test [5] is T3, human Y2 receptor (P49146, NPY2R_HUMAN, …). Put plainly: SPA vs [125I]-PYY(1-36).
Description: as §1, §2
For test [6], the target named is T4, human Y5 receptor (Q15761, NPY5R_HUMAN, Uniprot) (human, UniProt Q15761 1-445).
T4 construct: whole, on cells; Assayed as membrane preparations of the expressing cells
T4 sequence (looked up): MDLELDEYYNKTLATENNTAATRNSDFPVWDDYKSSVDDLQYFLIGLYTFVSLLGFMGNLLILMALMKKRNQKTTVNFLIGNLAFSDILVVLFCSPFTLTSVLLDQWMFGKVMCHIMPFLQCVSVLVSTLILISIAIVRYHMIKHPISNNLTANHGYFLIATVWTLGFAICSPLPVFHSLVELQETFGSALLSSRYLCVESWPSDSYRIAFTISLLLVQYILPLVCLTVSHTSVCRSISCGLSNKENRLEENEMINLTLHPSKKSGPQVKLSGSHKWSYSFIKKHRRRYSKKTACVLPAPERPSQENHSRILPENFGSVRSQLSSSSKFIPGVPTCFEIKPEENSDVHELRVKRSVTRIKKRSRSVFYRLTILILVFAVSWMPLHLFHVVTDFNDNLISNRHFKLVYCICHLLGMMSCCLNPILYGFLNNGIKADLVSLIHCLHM
Put plainly: SPA vs [125I]-PYY(1-36).
Description: as §1, §2

Test [7] addresses T2, human Y4 receptor (P50391, NPY4R_HUMAN, …). Description: ratio of SPA values, Y2 as reference.
Description: as §1, §2
Test [8] concerns the target T4, human Y5 receptor (Q15761, NPY5R_HUMAN, …). Description: ratio of SPA values, Y2 as reference.
Description: as §1, §2

T2 sequence (P50391 whole entry): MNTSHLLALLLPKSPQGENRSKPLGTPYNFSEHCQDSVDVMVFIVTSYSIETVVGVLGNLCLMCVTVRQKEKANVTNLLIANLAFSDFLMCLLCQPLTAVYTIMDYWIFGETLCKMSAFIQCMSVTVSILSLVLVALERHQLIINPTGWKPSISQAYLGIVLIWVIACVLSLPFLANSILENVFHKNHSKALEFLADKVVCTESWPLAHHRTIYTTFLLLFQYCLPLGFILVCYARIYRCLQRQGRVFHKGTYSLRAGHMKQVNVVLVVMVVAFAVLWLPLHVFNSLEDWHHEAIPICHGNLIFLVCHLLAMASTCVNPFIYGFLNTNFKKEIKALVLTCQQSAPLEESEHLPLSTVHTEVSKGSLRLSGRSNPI
human Y4 receptor (P50391, NPY4R_HUMAN, Uniprot) (human), sequence (P50391 whole entry): as above

Consider “N{alpha-4}-(3-Methylbutanoyl)-N{Epsilon-7}-[2-[2-[2-[[2-[2-[2-[[2-[2-[2-[[2-[2-[2-[[(4S)-4-carboxy-4-(17-carboxyheptadecanoylamino)butanoyl]amino]-ethoxy]ethoxy]acetyl]amino]ethoxy]ethoxy]acetyl]amino]ethoxy]ethoxy]acetyl]amino]ethoxy]ethoxy]acetyl]-[Arg4,Lys7,Pro9,Gln18,Tyr28,Trp30,Leu31]-PYY(4-36) (peptide)”, for which the Ratio of Y4/Y2 SPA binding values in test [1] was greater than 18300.

B1: N{alpha-4}-(3-Methylbutanoyl)-N{Epsilon-7}-[2-[2-[2-[[2-[2-[2-[[(4S)-4-carboxy-4-(17-carboxyheptadecanoylamino)butanoyl]amino]ethoxy]ethoxy]acetyl]amino]-ethoxy … (peptide)
peptide: RPEKPTEDASPEELQRYYASLRHYYNWLTRQRY
modifications: N-terminal alpha-amino (position 4): 3-methylbutanoyl; Lys7 (hPYY(1-36) numbering) epsilon-amino: [2-[2-[2-[[2-[2-[2-[[(4S)-4-carboxy-4-(17-carboxyheptadecanoylamino)butanoyl]amino]ethoxy]ethoxy]acetyl]amino]ethoxy]ethoxy]acetyl]; C-terminal amide
notes: also called Compound 14; 14
As to B1, in test [2], the Ki came to 8820 nM.

B2: N{alpha-4}-(3-Methylbutanoyl)-N{Epsilon-10}-[(4S)-4-carboxy-4-[[2-[2-[2-[[(4S)-4-carboxy-4-(17-carboxyheptadecanoylamino)butanoyl]amino]ethoxy]ethoxy]-acetyl]am … (peptide)
peptide: Isovaleryl-RPEAPPK([γGlu-AEEA-γGlu-C18 diacid])DASPEELQRYYASLRHYYNWLTRQRY-NH2
SMILES: CC(C)CC(=O)N[C@@H](CCCNC(=N)N)C(=O)N1CCC[C@H]1C(=O)N[C@@H](CCC(=O)O)C(=O)N[C@@H](C)C(=O)N1CCC[C@H]1C(=O)N1CCC[C@H]1C(=O)N[C@@H](CCCCNC(=O)CC[C@H](NC(=O)COCCOCCNC(=O)CC[C@H](NC(=O)CCCCCCCCCCCCCCCCC(=O)O)C(=O)O)C(=O)O)C(=O)N[C@@H](CC(=O)O)C(=O)N[C@@H](C)C(=O)N[C@@H](CO)C(=O)N1CCC[C@H]1C(=O)N[C@@H](CCC(=O)O)C(=O)N[C@@H](CCC(=O)O)C(=O)N[C@@H](CC(C)C)C(=O)N[C@@H](CCC(N)=O)C(=O)N[C@@H](CCCNC(=N)N)C(=O)N[C@@H](Cc1ccc(O)cc1)C(=O)N[C@@H](Cc1ccc(O)cc1)C(=O)N[C@@H](C)C(=O)N[C@@H](CO)C(=O)N[C@@H](CC(C)C)C(=O)N[C@@H](CCCNC(=N)N)C(=O)N[C@@H](Cc1c[nH]cn1)C(=O)N[C@@H](Cc1ccc(O)cc1)C(=O)N[C@@H](Cc1ccc(O)cc1)C(=O)N[C@@H](CC(N)=O)C(=O)N[C@@H](Cc1c[nH]c2ccccc12)C(=O)N[C@@H](CC(C)C)C(=O)N[C@H](C(=O)N[C@@H](CCCNC(=N)N)C(=O)N[C@@H](CCC(N)=O)C(=O)N[C@@H](CCCNC(=N)N)C(=O)N[C@@H](Cc1ccc(O)cc1)C(N)=O)[C@@H](C)O
notes: also called Compound 56; 56
B2: the Ki in test [3] amounted to 4410 nM; in test [5], 1.4 nM; in test [6] it was 279 nM. Moreover, in test [4], the “Y2 EC50, Actone functional potency assay” value came out at 0.54 nM. Also, the “Ratio of Y4/Y2 EC50 values” in test [7] is 3060. Besides, the “Ratio of Y5/Y2 EC50 values” in test [8] amounted to 193.
In the case of Isovaleryl-RPEAPPK([γGlu-AEEA-γGlu-C18 diacid])DASPEELQRYYESLRHYYNWLTRQRY-NH2 (also called Compound 54; 54), the Ki was 5910 nM in test [3], 2420 nM in test [2], 3.1 nM in test [5] and 254 nM in test [6]. Besides, the “Y2 EC50, Actone functional potency assay” value in test [4] is 1.6 nM.

B3: N{alpha-4}-(3-Methylbutanoyl)-N{Epsilon-10}-[2-[2-[2-[[2-[2-[2-[[(4S)-4-carboxy-4-(17-carboxyheptadecanoylamino)butanoyl]amino]ethoxy]ethoxy]acetyl]-amino]ethox … (peptide)
peptide: Isovaleryl-RPEAPGK([AEEA-AEEA-γGlu-C18 diacid])DASPEELQRYYESLRHYYNWLTRQRY-NH2
SMILES: CC(C)CC(=O)N[C@@H](CCCNC(=N)N)C(=O)N1CCC[C@H]1C(=O)N[C@@H](CCC(=O)O)C(=O)N[C@@H](C)C(=O)N1CCC[C@H]1C(=O)NCC(=O)N[C@@H](CCCCNC(=O)COCCOCCNC(=O)COCCOCCNC(=O)CC[C@H](NC(=O)CCCCCCCCCCCCCCCCC(=O)O)C(=O)O)C(=O)N[C@@H](CC(=O)O)C(=O)N[C@@H](C)C(=O)N[C@@H](CO)C(=O)N1CCC[C@H]1C(=O)N[C@@H](CCC(=O)O)C(=O)N[C@@H](CCC(=O)O)C(=O)N[C@@H](CC(C)C)C(=O)N[C@@H](CCC(N)=O)C(=O)N[C@@H](CCCNC(=N)N)C(=O)N[C@@H](Cc1ccc(O)cc1)C(=O)N[C@@H](Cc1ccc(O)cc1)C(=O)N[C@@H](CCC(=O)O)C(=O)N[C@@H](CO)C(=O)N[C@@H](CC(C)C)C(=O)N[C@@H](CCCNC(=N)N)C(=O)N[C@@H](Cc1c[nH]cn1)C(=O)N[C@@H](Cc1ccc(O)cc1)C(=O)N[C@@H](Cc1ccc(O)cc1)C(=O)N[C@@H](CC(N)=O)C(=O)N[C@@H](Cc1c[nH]c2ccccc12)C(=O)N[C@@H](CC(C)C)C(=O)N[C@H](C(=O)N[C@@H](CCCNC(=N)N)C(=O)N[C@@H](CCC(N)=O)C(=O)N[C@@H](CCCNC(=N)N)C(=O)N[C@@H](Cc1ccc(O)cc1)C(N)=O)[C@@H](C)O
notes: also called Compound 51; 51
Take B3: the “Y2 EC50, Actone functional potency assay” value in test [4] came out at 0.99 nM. Moreover, the Ki in test [2] was 2400 nM; in test [5], 2.3 nM; in test [6], 116 nM. Also, the “Ratio of Y4/Y2 EC50 values” in test [7] was greater than 4350. Also, the “Ratio of Y5/Y2 EC50 values” in test [8] was 50.

For orientation: Ki means a dissociation constant, usually derived from enzyme kinetics or from competition with a known ligand.
